The results in this text go back to article PMC3164098 (2011).

Ends that are not written are not given here.

In the test the target is T1, 12/1 peptide.
T1 chain: MPRFMDYWEGLN-NH2
As to the kind of experiment: ITC.

B1: MDM2 18-125 (protein)
chain: QIPASEQETLVRPKPLLLKLLKSVGAQKDTYTMKEVLFYLGQYIMTKRLYDEKQQHIVYCSNDLLGDLFGVPSFSVKEHRKIYTMIYRNLVVVNQQESSDSGTSVSEN
In the case of B1, the Kd was 240 nM.
